Numbered stars: 1 amine (or outer) side, 2 acyl side, 3 side chain; on linkers, the order of the positions; unused ones are H or OH. Square brackets hold non-standard residues; d marks the D form. Ends that are not written are not given here. Arg(Me2a) = CN(C)C(=N)NCCC[C@H](N)C(=O)O; Kac = CC(=O)NCCCC[C@H](N[*:1])C(=O)[*:2]; Lys(Me3) = C[N+](C)(C)CCCC[C@H](N)C(=O)O; Arg(Me2s) = CN=C(NC)NCCC[C@H](N)C(=O)O; pT = C[C@@H](OP(=O)(O)O)[C@H](N)C(=O)O; Lys(Me2) = CN(C)CCCC[C@H](N)C(=O)O; Lys(Me) = CNCCCC[C@H](N)C(=O)O; Me2a = not defined here; me2a = not defined here
Target: T1, CaBdf1 BD1 (GST-tagged, wild-type) (Candida albicans (strain SC5314 / ATCC …, UniProt Q5A4W8))
T1 chain: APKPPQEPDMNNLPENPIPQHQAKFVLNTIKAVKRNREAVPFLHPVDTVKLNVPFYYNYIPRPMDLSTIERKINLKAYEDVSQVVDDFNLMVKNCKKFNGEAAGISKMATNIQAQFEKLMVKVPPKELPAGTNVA
Experiment: histone peptide array (Active Motif MODified), 1 uM GST-tagged bromodomain, anti-GST detection, normalized mean intensity

Q: Which binding score does the source give for ARTK(me2)QTAR(me2s)K(me3)STGGKAPRKQ here?
A: 0.0029

Q: With ARTKQTARKSTGGKAPRKQ (A R T Kme1 Q T A Rme2s Kme2 S T G G K A P R K Q) as the binder, how does the binding score read?
A: 0.00471

Q: ARTKQTARKSTGGKAPRKQ (A Rme2s T Kme2 Q T A R Kme3 S T G G K A P R K Q) was tested. Which binding score did it give?
A: 0.00145

Q: ARTKQTARKSTGGKAPRKQ (A Rme2a T Kme2 Q T A Rme2a Kac S T G G K A P R K Q) was tested. Which binding score did it give?
A: 0.0395

Q: Which binding score does the source give for ARTKQTARKSTGGKAPRKQ (A R T K Q T A Rme2a Kac pS pT G G K A P R K Q) here?
A: 0.00616

Q: With A[Arg(Me2s)]T[Lys(Me2)]QTA[Arg(Me2a)][Kac]STGGKAPRKQ as the binder, how does the binding score read?
A: 0.0402

Q: ARTKQTARKSTGGKAPRKQ (A R T K Q T A R Kme3 S T G G Kac A P R K Q) was tested. Which binding score did it give?
A: 0.0225

Q: ARTKQTARKSTGGKAPRKQ (A R T Kme1 Q T A Rme2a Kac S T G G K A P R K Q) was tested. Which binding score did it give?
A: 0.0257

Q: ARTKQTARKSTGGKAPRKQ (A Rme2s T Kme3 Q T A R Kme3 S T G G K A P R K Q) was tested. Which binding score did it give?
A: 0.00254

Q: With ARTK(Me2)QTAR(Me2a)K(Me3)STGGKAPRKQ (reading uncertain) as the binder, how does the binding score read?
A: 0.00181

Q: How did the binding score turn out when ARTKQTARKSTGGKAPRKQ (A Rme2s T Kme2 Q T A Rme2a Kme3 S T G G K A P R K Q) was run?
A: 0.00508

Q: Which binding score does the source give for ARTKQTARKSTGGKAPRKQ (A Rme2s T Kme3 Q T A Rme2a Kme2 S T G G K A P R K Q) here?
A: 0.0029

Q: ARTKQTARKSTGGKAPRKQ (A Rme2a T Kme2 Q T A R Kac S T G G K A P R K Q) was tested. Which binding score did it give?
A: 0.0337

Q: ARTKQTARKSTGGKAPRKQ (A Rme2a T Kme2 Q T A Rme2a Kme3 S T G G K A P R K Q) was tested. Which binding score did it give?
A: 0.00254

Q: With ARTKQTARKSTGGKAPRKQ (A R T Kme3 Q T A Rme2a Kme1 S T G G K A P R K Q) as the binder, how does the binding score read?
A: 0.00435

Q: Which binding score does the source give for AR(Me2a)[pT]KQTARKSTGGKAPRKQ (reading uncertain) here?
A: 0.00181

Q: For ARTKQTARKSTGGKAPRKQ (A R T Kme3 Q T A Rme2s Kac S T G G K A P R K Q), which binding score is on record?
A: 0.0286

Q: With ARTKQTARKSTGGKAPRKQ (A Rme2a T Kme2 Q T A Rme2a K S T G G K A P R K Q) as the binder, how does the binding score read?
A: 0.00508

Q: With ARTKQTARKSTGGK(Ac)APRKQ as the binder, how does the binding score read?
A: 0.0319

Q: Which binding score does the source give for A[Arg(Me2a)]T[Lys(Me)]QTA[Arg(Me2a)][Lys(Me2)]STGGKAPRKQ here?
A: 0.0029

Q: ARTKQTARKSTGGKAPRKQ (A Rme2s T Kme3 Q T A Rme2s K S T G G K A P R K Q) was tested. Which binding score did it give?
A: 0.0029

Q: ARTKQTARKSTGGKAPRKQ (A Rme2s T Kme2 Q T A Rme2s Kac S T G G K A P R K Q) was tested. Which binding score did it give?
A: 0.0239

Q: ARTKQTARKSTGGKAPRKQ (A R T K Q T A R Kac S pT G G K A P R K Q) was tested. Which binding score did it give?
A: 0.00544

Q: With ARTKQTARKSTGGKAPRKQ (A R T K Q T A Rme2a Kme2 S T G G K A P R K Q) as the binder, how does the binding score read?
A: 0.0029

Q: With ARTKQTARKSTGGKAPRKQ (A Rme2s T Kme1 Q T A Rme2a Kac S T G G K A P R K Q) as the binder, how does the binding score read?
A: 0.0381

Q: With ARTKQTARKSTGGKAPRKQ (A Rme2s T Kme3 Q T A R Kme1 S T G G K A P R K Q) as the binder, how does the binding score read?
A: 0.00471

Q: With ARTKQTARKSTGGKAPRKQ (A R T K Q T A R Kme2 S T G G Kac A P R K Q) as the binder, how does the binding score read?
A: 0.0315

Q: Which binding score does the source give for A[Arg(Me2s)]T[Lys(Me2)]QTAR[Lys(Me)]STGGKAPRKQ here?
A: 0.00544

Q: AR(me2a)TK(Me)QTARKSTGGKAPRKQ (reading uncertain) was tested. Which binding score did it give?
A: 0.0029

Q: With ARTK(me2)QTAR(me2s)K(Me)STGGKAPRKQ as the binder, how does the binding score read?
A: 0.00544

Q: Which binding score does the source give for ARTKQTARKSTGGKAPRKQ (A Rme2a T Kme3 Q T A Rme2a K S T G G K A P R K Q) here?
A: 0.00363

Q: Which binding score does the source give for A[Arg(Me2s)]TK(Me)QTARK(Me)STGGKAPRKQ here?
A: 0.0029

Q: ARTKQTARKSTGGKAPRKQ (A R T Kme3 Q T A Rme2s Kme1 S T G G K A P R K Q) was tested. Which binding score did it give?
A: 0.00471

Q: How did the binding score turn out when AR(Me2s)TK(Me3)QTAR(Me2s)K(Ac)STGGKAPRKQ was run?
A: 0.017

Q: For ARTKQTARKSTGGKAPRKQ (A Rme2a T Kme3 Q T A Rme2s Kme3 S T G G K A P R K Q), which binding score is on record?
A: 0.00508

Q: For ARTKQTARKSTGGKAPRKQ (A R T Kme3 Q T A Rme2a Kme2 S T G G K A P R K Q), which binding score is on record?
A: 0.00254

Q: ARTKQTARKSTGGKAPRKQ (A R T Kme1 Q T A Rme2s Kac S T G G K A P R K Q) was tested. Which binding score did it give?
A: 0.0305

Q: With ARTKQTARKSTGGKAPRKQ (A Rme2s T Kme1 Q T A Rme2s Kme1 S T G G K A P R K Q) as the binder, how does the binding score read?
A: 0.00326

Q: For ARTKQTARKSTGGKAPRKQ (A Rme2a T Kme1 Q T A Rme2a Kme3 S T G G K A P R K Q), which binding score is on record?
A: 0.00435

Q: Which binding score does the source give for A[Arg(Me2a)]T[Lys(Me3)]QTAR[Kac]STGGKAPRKQ here?
A: 0.0344

Q: For ARTKQTARKSTGGKAPRKQ (A Rme2a T Kac Q T A Rme2s Kac S T G G K A P R K Q), which binding score is on record?
A: 0.0334

Q: For A[Arg(Me2s)]T[Lys(Me3)]QTA[Arg(Me2a)][Lys(Me3)]STGGKAPRKQ, which binding score is on record?
A: 0.00363

Q: With ARTKQTARKSTGGKAPRKQ (A R T K Q T A Rme2a K S pT G G K A P R K Q) as the binder, how does the binding score read?
A: 0.00399

Q: Which binding score does the source give for ARTKQTARKSTGGKAPRKQ (A R T Kac Q T A Rme2s Kme1 S T G G K A P R K Q) here?
A: 0.00508

Q: How did the binding score turn out when A[Arg(Me2s)]T[Lys(Me)]QTA[Arg(Me2a)][Lys(Me2)]STGGKAPRKQ was run?
A: 0.00471

Q: ARTKQTARKSTGGKAPRKQ (A Rme2s T Kme1 Q T A Rme2s K S T G G K A P R K Q) was tested. Which binding score did it give?
A: 0.00326
